In US20160060340A1 (Kyowa Kirin, published 2016):

B1: C101A (antibody, V domains shown)
VH: EVQLVESGGGLVQPGGSLRLSCAASGFTFTDFYMNWVRQPPGKAPEWLGFIRNKANGYTTEFNPSVKGRFTISRDNSKNSLYLQMNSLKTEDTATYYCARALYGYAYYYVMDAWGQGTLVTVSS
VL: DIQMTQSPSSLSASLGDRVTITCRTSEDIFRNLAWYQQKPGKAPKLLIYDTNRLADGVPSRFSGSGSGTDYTLTISSLQPEDFATYFCQQYDNYPLTFGQGTKLEIK
notes: also called HV7LV3-CDRH3-Cys101 modified antibody C101A; antibody in which Cys101 was modified with Ala
B2: HV7LV3-CDRH3-Cys101 modified antibody C101V (antibody, human IgG1, V domains shown)
VH: EVQLVESGGGLVQPGGSLRLSCAASGFTFTDFYMNWVRQPPGKAPEWLGFIRNKANGYTTEFNPSVKGRFTISRDNSKNSLYLQMNSLKTEDTATYYCARVLYGYAYYYVMDAWGQGTLVTVSS
VL: DIQMTQSPSSLSASLGDRVTITCRTSEDIFRNLAWYQQKPGKAPKLLIYDTNRLADGVPSRFSGSGSGTDYTLTISSLQPEDFATYFCQQYDNYPLTFGQGTKLEIK
notes: Human IgG1 kappa constant regions of pKANTEX93; transiently made in FUT8 double-knockout CHO-K1 cells; also called antibody in which Cys101 was modified with Val
B3: modified humanized RA15-7 antibody HV10LV6 (antibody, human IgG1, V domains shown)
VH: EVQLVESGGGLVQPGGSMRLSCAASGFTFTDFYMNWIRQPAGKAPEWLGFIRNKANGYTTEFNPSVKGRFTISRDNSKNSLYLQMNSLKTEDTATYYCARCLYGYAYYYVMDAWGQGTLVTVSS
VL: DIQMTQSPSSLSASLGDRVTITCRTSEDIFRNLAWYQQKPGKSPQLLIYDTNRLADGVPSRFSGSGSGTDYTLTISSLQPEDFAGYFCQQYDNYPLTFGQGTKLEIK
notes: Human IgG1 kappa constant regions of pKANTEX93; transiently made in FUT8 double-knockout CHO-K1 cells
B4: HV7LV3-CDRH3-Cys101 modified antibody C101T (HuRA15-7CT) (antibody, human IgG1, V domains shown)
VH: EVQLVESGGGLVQPGGSLRLSCAASGFTFTDFYMNWVRQPPGKAPEWLGFIRNKANGYTTEFNPSVKGRFTISRDNSKNSLYLQMNSLKTEDTATYYCARTLYGYAYYYVMDAWGQGTLVTVSS
VL: DIQMTQSPSSLSASLGDRVTITCRTSEDIFRNLAWYQQKPGKAPKLLIYDTNRLADGVPSRFSGSGSGTDYTLTISSLQPEDFATYFCQQYDNYPLTFGQGTKLEIK
modifications: Expressed in FUT8-knockout CHO-K1 cells (Fc glycan without core fucose); not carried by the letters.
notes: Human IgG1 kappa constant regions of pKANTEX93; transiently made in FUT8 double-knockout CHO-K1 cells; Same vector as HuRA15-7CTDF; also called antibody in which Cys101 was modified with Thr
B5: HV7LV3-CDRH3-Cys101 modified antibody C101I (antibody, human IgG1, V domains shown)
VH: EVQLVESGGGLVQPGGSLRLSCAASGFTFTDFYMNWVRQPPGKAPEWLGFIRNKANGYTTEFNPSVKGRFTISRDNSKNSLYLQMNSLKTEDTATYYCARILYGYAYYYVMDAWGQGTLVTVSS
VL: DIQMTQSPSSLSASLGDRVTITCRTSEDIFRNLAWYQQKPGKAPKLLIYDTNRLADGVPSRFSGSGSGTDYTLTISSLQPEDFATYFCQQYDNYPLTFGQGTKLEIK
notes: Human IgG1 kappa constant regions of pKANTEX93; transiently made in FUT8 double-knockout CHO-K1 cells; also called antibody in which Cys101 was modified with Ile
B6: C101G (antibody, V domains shown)
VH: EVQLVESGGGLVQPGGSLRLSCAASGFTFTDFYMNWVRQPPGKAPEWLGFIRNKANGYTTEFNPSVKGRFTISRDNSKNSLYLQMNSLKTEDTATYYCARGLYGYAYYYVMDAWGQGTLVTVSS
VL: DIQMTQSPSSLSASLGDRVTITCRTSEDIFRNLAWYQQKPGKAPKLLIYDTNRLADGVPSRFSGSGSGTDYTLTISSLQPEDFATYFCQQYDNYPLTFGQGTKLEIK
notes: also called HV7LV3-CDRH3-Cys101 modified antibody C101G; antibody in which Cys101 was modified with Gly
B7: HV7LV3-CDRH3-Cys101 modified antibody C101F (antibody, human IgG1, V domains shown)
VH: EVQLVESGGGLVQPGGSLRLSCAASGFTFTDFYMNWVRQPPGKAPEWLGFIRNKANGYTTEFNPSVKGRFTISRDNSKNSLYLQMNSLKTEDTATYYCARFLYGYAYYYVMDAWGQGTLVTVSS
VL: DIQMTQSPSSLSASLGDRVTITCRTSEDIFRNLAWYQQKPGKAPKLLIYDTNRLADGVPSRFSGSGSGTDYTLTISSLQPEDFATYFCQQYDNYPLTFGQGTKLEIK
notes: Human IgG1 kappa constant regions of pKANTEX93; transiently made in FUT8 double-knockout CHO-K1 cells; also called antibody in which Cys101 was modified with Phe

Tests used:
FOLR1-mycHis [1] = target: T1, FOLR1-mycHis (human, UniProt P15328 25-233); assay: SPR (Biacore), antibody captured by Human Antibody Capture Kit on a CM5 chip, FOLR1-mycHis as analyte (12.3-1000 ng/mL, as in Example 29); affinity relative to ChRA15-7Acc = 100
T1 construct: Secreted from CHO/DG44 cells, purified on Ni-NTA; Residues 1-233 include the native signal peptide; also called non-reducing FOLR1-mycHis; recombinant protein having myc and His tag at the C-terminus of FOLR1 (1-233 amino acids); not shown: myc and His tag at the C-terminus
Procedure: (§1) The affinities of ChRA15-7Acc antibody and MORAb-003 antibody for FOLR1 were measured by a surface plasmon resonance method. The measurement was carried out in the same manner as in Example 16, except that a Human Antibody Capture Kit (GE Healthcare) was immobilized onto the CM5 chip by amine coupling and FOLR1-mycHis prepared by five-step dilution (12.3, 37, 111, 333, 1000 ng/mL) was applied as an analyte.
(§2) Affinities of HV7LV3-CDRH3-Cys101 modified antibodies for FOLR1 were measured by the surface plasmon resonance method in the same manner as in Example 29.

FOLR1-mycHis [2] = target: T1, FOLR1-mycHis; assay: surface plasmon resonance as in Example 29
Procedure: as §1, §2

FOLR1-mycHis [3] = target: T1, FOLR1-mycHis; assay: SPR as in Example 29, antibody captured, FOLR1-mycHis as analyte
Procedure: as §1, §2

T1 sequence (P15328 25-233): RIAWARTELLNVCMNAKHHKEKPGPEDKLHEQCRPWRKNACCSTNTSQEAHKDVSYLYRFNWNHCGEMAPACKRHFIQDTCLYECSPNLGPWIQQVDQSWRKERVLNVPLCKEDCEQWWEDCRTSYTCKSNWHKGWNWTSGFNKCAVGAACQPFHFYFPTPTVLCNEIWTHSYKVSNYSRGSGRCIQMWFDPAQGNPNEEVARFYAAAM

| Binder | binding result (FOLR1-mycHis [1]) | affinity as percent of the affinity of ChRA15-7Acc antibody (FOLR1-mycHis [2]) | affinity as percent of the affinity of ChRA15-7Acc antibody (FOLR1-mycHis [3]) | affinity as percent of the affinity of ChRA15-7Acc (FOLR1-mycHis [3]) |
| --- | --- | --- | --- | --- |
| B1 | binds |  |  |  |
| B2 |  | ≥ 50 % of the affinity of ChRA15-7Acc antibody | 55% |  |
| B3 |  |  |  | ~70% |
| B4 |  | ≥ 50 % of the affinity of ChRA15-7Acc antibody | 88% |  |
| B5 |  | ≥ 50 % of the affinity of ChRA15-7Acc antibody | 73% |  |
| B6 | binds |  |  |  |
| B7 |  | ≥ 50 % of the affinity of ChRA15-7Acc antibody | 80% |  |
